{"source": "patent US20240301386A1", "about": "“Soluble Guanylyl Cyclase (GC1) Mimetic Polypeptides and Methods of Use Thereof” (Rutgers, the State University of New Jersey, priority 2023, published 2024)", "molecules": {"B1": {"name": "Reduced Trx1 (rTrx1), recombinant human Trx1 treated with 10 mM DTT (protein)", "chain": "MVKQIESKTAFQEALDAAGDKLVVVDFSATWCGPCKMIKPFFHSLSEKYSNVIFLEVDVDDCQDVASECEVKCMPTFQFFKKGQKVGEFSGANKEKLEATINELV"}, "B2": {"name": "Thioredoxin 1 (Trx1) protein, purified (protein)", "chain": "B1 chain"}, "B3": {"name": "Reduced GC1 (rGC1), recombinant human GC1 treated with 10 mM DTT (protein)", "chain 1": "MFCTKLKDLKITGECPFSLLAPGQVPNESSEEAAGSSESCKATMPICQDIPEKNIQESLPQRKTSRSRVYLHTLAESICKLIFPEFERLNVALQRTLAKHKIKESRKSLEREDFEKTIAEQAVAAGVPVEVIKESLGEEVFKICYEEDENILGVVGGTLKDFLNSFSTLLKQSSHCQEAGKRGRLEDASILCLDKEDDFLHVYYFFPKRTTSLILPGIIKAAAHVLYETEVEVSLMPPCFHNDCSEFVNQPYLLYSVHMKSTKPSLSPSKPQSSLVIPTSLFCKTFPFHFMFDKDMTILQFGNGIRRLMNRRDFQGKPNFEEYFEILTPKINQTFSGIMTMLNMQFVVRVRRWDNSVKKSSRVMDLKGQMIYIVESSAILFLGSPCVDRLEDFTGRGLYLSDIPIHNALRDVVLIGEQARAQDGLKKRLGKLKATLEQAHQALEEEKKKTVDLLCSIFPCEVAQQLWQGQVVQAKKFSNVTMLFSDIVGFTAICSQCSPLQVITMLNALYTRFDQQCGELDVYKVETIGDAYCVAGGLHKESDTHAVQIALMAVKMMELSDEVMSPHGEPIKMRIGLHSGSVFAGVVGVKMPRYCLFGNNVTLANKFESCSVPRKINVSPTTYRLLKDCPGFVFTPRSREELPPNFPSEIPGICHFLDAYQQGTNSKPCFQKKDVEDGNANFLGKASGID", "chain 2": "MYGFVNHALELLVIRNYGPEVWEDIKKEAQLDEEGQFLVRIIYDDSKTYDLVAAASKVLNLNAGEILQMFGKMFFVFCQESGYDTILRVLGSNVREFLQNLDALHDHLATIYPGMRAPSFRCTDAEKGKGLILHYYSEREGLQDIVIGIIKTVAQQIHGTEIDMKVIQQRNEECDHTQFLIEEKESKEEDFYEDLDRFEENGTQESRISPYTFCKAFPFHIIFDRDLVVTQCGNAIYRVLPQLQPGNCSLLSVFSLVRPHIDISFHGILSHINTVFVLRSKEGLLDVEKLECEDELTGTEISCLRLKGQMIYLPEADSILFLCSPSVMNLDDLTRRGLYLSDIPLHDATRDLVLLGEQFREEYKLTQELEILTDRLQLTLRALEDEKKKTDTLLYSVLPPSVANELRHKRPVPAKRYDNVTILFSGIVGFNAFCSKHASGEGAMKIVNLLNDLYTRFDTLTDSRKNPFVYKVETVGDKYMTVSGLPEPCIHHARSICHLALDMMEIAGQVQVDGESVQITIGIHTGEVVTGVIGQRMPRYCLFGNTVNLTSRTETTGEKGKINVSEYTYRCLMSPENSDPQFHLEHRGPVSMKGKKEPMQVWFLSRKNTGTEETKQDDD"}}, "key": {"Jurkat T cells": {"tested_on": "Jurkat T cells", "assay": "Biotin-avidin switch assays of S-nitrosation in Jurkat T cells ± etoposide", "format": "cell-based, human", "method": "Jurkat cells were cultured in a 6-well plate at the density of 0.25×10^6/ml in complete medium RPMI 1640 from Corning (10-040-CV) supplemented with 10% FBS and Pen-Strep and incubated at 37° C. with 5% CO2 for 24 h. The cells were collected by centrifuging at 1000 g for 5 min, washed twice with serum-free medium, and re-suspended with 2 ml serum-free medium prior to peptide treatment.\nFree thiols of proteins were blocked in lysis-blocking buffer containing 50 mM Tris, pH 7.5, 150 mM NaCl, 1% Triton X-100, 1 mM EDTA, 2% SDS, 0.1 mM neocuproine, 0.2 mM PSMF, and 40 mM N-ethylmaleimide (NEM) at 50° C. for 30 min in the dark. Excess NEM was removed using cold acetone precipitation. The protein pellets were generated by centrifugating at 14000 g for 10 min at 4° C. and washed 3 times using cold acetone. […]\nFor biotin-avidin switch assays: After 16 h incubation, the cells were washed twice with cold PBS and lysed in lysis-blocking buffer containing 50 mM Tris, pH 7.5, 150 mM NaCl, 1% Triton X-100, 1 mM EDTA, 2% SDS, 0.1 mM neocuproine, and 40 mM NEM supplemented with PMSF and protease inhibitor cocktail. The protein concentration was measured using the Bradford method. 50 μg of each lysate was analyzed by Western blot as starting material (inputs) and 200 μg proteins of each sample were subjected to the biotin switch and avidin assays, as described elsewhere herein. […]"}, "caspase-3": {"tested_on": "caspase-3", "assay": "Caspase-3 activity assay in Jurkat T cells ± etoposide", "format": "cell-based, human", "details": "etoposide 8 μM 16 h compared to samples not treated with ETO", "method": "The cells in suspension in 2 ml serum-free medium were treated with either 70% DMSO (20 μL, 0.7% final), scramble peptide, or inhibitory peptide at a final concentration of 10 μM and incubated at 37° C. for 1 h. After incubation, the cells were washed twice and incubated in complete medium at 37° C. for 8 h. The cells were then treated with (or without) etoposide (ETO) at 8 μM final at 37° C. for 16 h.\nFor Caspase-3 activity assays: After 16 h incubation, the cells were washed twice with cold PBS and lysed in the supplier's 1× lysis buffer (at 10 μL per 10^6 cells). After 15 min incubation on ice, the lysates were centrifuged at 16,000 g for 15 min at 4° C. and the supernatant collected. Caspase-3 activity was measured following the supplier's instructions (CASP3C-1KT, Sigma) after 2 and 3 h incubation.\nWhether these observations correlated with an increased caspase-3 activity was next assessed with a colorimetric assay based on cleavage of the substrate […], under the same above conditions. […] It was concluded that disrupting the SNO-GC1→oTrx1→procaspase-3 transnitrosation cascade using a peptide inhibitory of the GC1/Trx1 interaction promotes Jurkat T-cells apoptosis."}, "[1]": {"target": "T1, Oxidized GC1 (oGC1), recombinant human GC1 treated with 100 µM diamide, Q02153", "T1 chain 1": "B3 chain 1", "T1 chain 2": "B3 chain 2"}, "[2]": {"target": "T2, Purified recombinant human soluble guanylyl cyclase (GC1), Q02153", "T2 chain 1": "B3 chain 1", "T2 chain 2": "B3 chain 2"}, "[3]": {"target": "T3, Oxidized Trx1 (oTrx1), recombinant human Trx1 treated with 100 µM diamide, P10599", "T3 chain": "B1 chain"}}, "data": [{"molecule": "COc1cc([C@@H]2c3cc4c(cc3[C@@H](O[C@@H]3O[C@@H]5CO[C@@H](C)O[C@H]5[C@H](O)[C@H]3O)[C@H]3COC(=O)[C@H]23)OCO4)cc(OC)c1O", "note": "[Etoposide]", "values": [{"measurement": "global levels of S-nitrosation in Jurkat T cells", "setting": "Jurkat T cells; peptide 10 μM 1 h, etoposide 8 μM 16 h (FIG. 8A left panel)", "value": "did not affect"}, {"measurement": "SNO-procaspase-3 level in Jurkat T cells", "setting": "Jurkat T cells; peptide 10 μM 1 h ± etoposide 8 μM 16 h, avidin purified, compared to DMSO and scramble peptide (FIG. 8A right panel)", "value": "slightly reduced"}, {"measurement": "caspase-3 activity in Jurkat cells treated with ETO", "setting": "caspase-3", "value": "significant increase"}]}, {"molecule": "B1", "values": [{"measurement": "conversion of oGC1 multimers into monomers (non-reducing gel, Western blot)", "setting": "[1]", "value": "rTrx1 converted oGC1 multimers into monomers to some extent"}, {"measurement": "conversion of oGC1 multimers into monomers in the presence of 125 µM scramble peptide", "setting": "[1]", "value": "the reducing effect of Trx1 was maintained with the scramble peptide as control"}]}, {"molecule": "B2", "values": [{"measurement": "NO-stimulated GC1 activity (1 µM DEA-NO), purified GC1 + Trx1 1:7", "setting": "[2]", "value": "FIG. 3A first confirmed the increased NO-stimulated activity of GC1 by Trx1"}, {"measurement": "NO-stimulated GC1 activity, purified GC1 + Trx1 in the presence of peptide 1 (25 µM)", "setting": "[2]", "value": "Trx1-dependent increase of NO-stimulated GC1 activity was similarly blunted by the 3 peptides"}, {"measurement": "NO-stimulated GC1 activity, purified GC1 + Trx1 in the presence of peptide 2 (25 µM)", "setting": "[2]", "value": "Trx1-dependent increase of NO-stimulated GC1 activity was similarly blunted by the 3 peptides"}, {"measurement": "NO-stimulated GC1 activity, purified GC1 + Trx1 in the presence of peptide 3 (25 µM)", "setting": "[2]", "value": "Trx1-dependent increase of NO-stimulated GC1 activity was similarly blunted by the 3 peptides"}, {"measurement": "NO-stimulated GC1 activity, purified GC1 + Trx1 in the presence of the scramble peptide (25 µM)", "setting": "[2]", "value": "the scramble peptide had no effect"}]}, {"molecule": "B3", "values": [{"measurement": "conversion of oTrx1 dimers into monomers (non-reducing gel, Western blot)", "setting": "[3]", "value": "rGC1 converted most of oTrx1 dimer into Trx1 monomers"}, {"measurement": "conversion of oTrx1 dimers into monomers in the presence of 125 µM scramble peptide", "setting": "[3]", "value": "the rGC1-dependent conversation of Trx1 from dimers to monomers was maintained in the presence of the scramble peptide"}]}]}
